The source of these data is the supplement of paper PMC9112550, “Optimization of the antimicrobial peptide Bac7 by deep mutational scanning” (BMC Biology, 2022).
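Further: peptides expressed intracellularly from a pBAD plasmid library in pooled LB shake-flask culture, induced with 0.3% L-arabinose, DNA abundance read by NGS, three biological replicates, DESeq2 with apeglm shrinkage.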

In this data set the test system is Escherichia coli TOP10. Nature of the data set: shrunken log2 fold change of peptide-encoding DNA abundance (4.5 h post-induction vs induction); higher = less antimicrobial activity (less host growth inhibition). The note with it: time post-induction: 4.5 h; library: site-saturation at positions 5, 18, 19, 20.
With RRIRYRPPRLPRPRPRPTVAPRP, the “shrunken log2 fold change” value was 0.0691.

Take RRIRTRPPRLPRPRPRPDGIPRP: the “shrunken log2 fold change” value was -0.00822.

For RRIRQRPPRLPRPRPRPCLKPRP, the “shrunken log2 fold change” value is -0.286.

Take RRIRTRPPRLPRPRPRPSIRPRP: the “shrunken log2 fold change” value was -0.183.

In the case of RRIRWRPPRLPRPRPRPKYQPRP, the “shrunken log2 fold change” value was -0.231.

As for RRIRQRPPRLPRPRPRPRTEPRP, the “shrunken log2 fold change” value is 2.94.

As for RRIRMRPPRLPRPRPRPYPQPRP, the “shrunken log2 fold change” value came to 0.0818.

As for RRIRTRPPRLPRPRPRPKCNPRP, the “shrunken log2 fold change” value is -0.221.

Turning to RRIRTRPPRLPRPRPRPTHQPRP, the “shrunken log2 fold change” value is 0.926.

As to RRIRTRPPRLPRPRPRPQEDPRP, the “shrunken log2 fold change” value was -0.01.

Consider RRIRQRPPRLPRPRPRPVDHPRP, for which the “shrunken log2 fold change” value was -0.335.

For the sequence RRIRIRPPRLPRPRPRPIQYPRP, the “shrunken log2 fold change” value is -0.251.

For RRIRARPPRLPRPRPRPLHLPRP, the “shrunken log2 fold change” value came out at 0.0337.

As for RRIRARPPRLPRPRPRPPVNPRP, the “shrunken log2 fold change” value worked out at 0.36.

For the sequence RRIRKRPPRLPRPRPRPLNYPRP, the “shrunken log2 fold change” value was -0.217.

Take RRIRNRPPRLPRPRPRPDQGPRP: the “shrunken log2 fold change” value was -0.257.

Take RRIRGRPPRLPRPRPRPVAIPRP: the “shrunken log2 fold change” value came out at 0.949.

For RRIRDRPPRLPRPRPRPAFGPRP, the “shrunken log2 fold change” value is 0.238.

RRIRTRPPRLPRPRPRPRLSPRP: the “shrunken log2 fold change” value was -0.0634.

Regarding RRIRERPPRLPRPRPRPFRVPRP, the “shrunken log2 fold change” value is -0.0333.

Regarding RRIRHRPPRLPRPRPRPELMPRP, the “shrunken log2 fold change” value was -0.141.

Consider RRIRMRPPRLPRPRPRPVPKPRP, for which the “shrunken log2 fold change” value is 1.11.

Take RRIRMRPPRLPRPRPRPLQAPRP: the “shrunken log2 fold change” value stood at 2.15.

RRIRTRPPRLPRPRPRPEQCPRP: the “shrunken log2 fold change” value is -0.01.

With RRIRTRPPRLPRPRPRPNQHPRP, the “shrunken log2 fold change” value is -0.354.

For RRIRFRPPRLPRPRPRPYGNPRP, the “shrunken log2 fold change” value was -0.527.

Turning to RRIRHRPPRLPRPRPRPASTPRP, the “shrunken log2 fold change” value is -0.357.

On to RRIRQRPPRLPRPRPRPKIAPRP, for which the “shrunken log2 fold change” value turned out to be 0.278.

For RRIRERPPRLPRPRPRPVKEPRP, the “shrunken log2 fold change” value was -0.0153.

Turning to RRIRWRPPRLPRPRPRPRTYPRP, the “shrunken log2 fold change” value is -0.331.

Turning to RRIRVRPPRLPRPRPRPGNKPRP, the “shrunken log2 fold change” value is -0.286.

For the sequence RRIRYRPPRLPRPRPRPTWIPRP, the “shrunken log2 fold change” value is -1.08.

Consider RRIRMRPPRLPRPRPRPLVIPRP, for which the “shrunken log2 fold change” value is -0.13.

On to RRIRRRPPRLPRPRPRPPHNPRP, for which the “shrunken log2 fold change” value came out at 1.21.

Consider RRIRPRPPRLPRPRPRPLAIPRP, for which the “shrunken log2 fold change” value turned out to be 0.00474.

Consider RRIRWRPPRLPRPRPRPYRVPRP, for which the “shrunken log2 fold change” value worked out at 0.00439.

Take RRIRRRPPRLPRPRPRPYRVPRP: the “shrunken log2 fold change” value is -0.0172.

As to RRIRDRPPRLPRPRPRPPCPPRP, the “shrunken log2 fold change” value was determined as 0.173.

As to RRIRCRPPRLPRPRPRPAIVPRP, the “shrunken log2 fold change” value is -0.37.

For the sequence RRIRPRPPRLPRPRPRPGRIPRP, the “shrunken log2 fold change” value amounted to 0.0185.

On to RRIRQRPPRLPRPRPRPPLSPRP, for which the “shrunken log2 fold change” value was found to be 0.0729.

RRIRPRPPRLPRPRPRPRPPPRP: the “shrunken log2 fold change” value is 0.831.

Take RRIRDRPPRLPRPRPRPQWLPRP: the “shrunken log2 fold change” value is 0.24.

Consider RRIRTRPPRLPRPRPRPVLVPRP, for which the “shrunken log2 fold change” value is -0.106.

Regarding RRIRSRPPRLPRPRPRPWAGPRP, the “shrunken log2 fold change” value is -0.255.

Regarding RRIRLRPPRLPRPRPRPKKHPRP, the “shrunken log2 fold change” value is -0.154.

For the sequence RRIRTRPPRLPRPRPRPFWHPRP, the “shrunken log2 fold change” value stood at 0.23.

As for RRIRLRPPRLPRPRPRPSFIPRP, the “shrunken log2 fold change” value was -0.578.

As to RRIRERPPRLPRPRPRPKRLPRP, the “shrunken log2 fold change” value was 0.0323.

As to RRIRLRPPRLPRPRPRPSYKPRP, the “shrunken log2 fold change” value was -0.456.

For the sequence RRIRMRPPRLPRPRPRPVPLPRP, the “shrunken log2 fold change” value is -0.0409.

Consider RRIRLRPPRLPRPRPRPNAPPRP, for which the “shrunken log2 fold change” value is 0.0456.

Regarding RRIRQRPPRLPRPRPRPMKDPRP, the “shrunken log2 fold change” value was -0.447.

Take RRIRLRPPRLPRPRPRPWMDPRP: the “shrunken log2 fold change” value turned out to be 0.0138.

RRIRNRPPRLPRPRPRPYFFPRP: the “shrunken log2 fold change” value is -0.482.

In the case of RRIRGRPPRLPRPRPRPRVIPRP, the “shrunken log2 fold change” value worked out at 0.227.

Take RRIRHRPPRLPRPRPRPYMMPRP: the “shrunken log2 fold change” value is -3.2.

In the case of RRIRWRPPRLPRPRPRPFMSPRP, the “shrunken log2 fold change” value was -0.0321.

For the sequence RRIRSRPPRLPRPRPRPYMDPRP, the “shrunken log2 fold change” value is -0.326.

Regarding RRIRIRPPRLPRPRPRPSVHPRP, the “shrunken log2 fold change” value was -0.278.

For RRIRNRPPRLPRPRPRPVIPPRP, the “shrunken log2 fold change” value was -0.462.

With RRIRVRPPRLPRPRPRPYGDPRP, the “shrunken log2 fold change” value is -0.168.

On to RRIRLRPPRLPRPRPRPDCKPRP, for which the “shrunken log2 fold change” value is 0.0852.

Take RRIRSRPPRLPRPRPRPLVVPRP: the “shrunken log2 fold change” value was 0.268.

Regarding RRIRGRPPRLPRPRPRPYTQPRP, the “shrunken log2 fold change” value is -0.0862.

As to RRIRIRPPRLPRPRPRPPKPPRP, the “shrunken log2 fold change” value turned out to be 0.0539.

RRIRRRPPRLPRPRPRPKCPPRP: the “shrunken log2 fold change” value stood at 0.278.

As to RRIRIRPPRLPRPRPRPPDLPRP, the “shrunken log2 fold change” value was -0.00973.

Turning to RRIRDRPPRLPRPRPRPLCTPRP, the “shrunken log2 fold change” value is 0.704.

On to RRIRNRPPRLPRPRPRPCGSPRP, for which the “shrunken log2 fold change” value is -0.0353.

With RRIRNRPPRLPRPRPRPLQEPRP, the “shrunken log2 fold change” value was -0.0474.

As to RRIRNRPPRLPRPRPRPFKTPRP, the “shrunken log2 fold change” value was -0.0614.

With RRIRDRPPRLPRPRPRPWCFPRP, the “shrunken log2 fold change” value was -0.0692.

Turning to RRIRSRPPRLPRPRPRPQSEPRP, the “shrunken log2 fold change” value was -0.0306.

As for RRIRLRPPRLPRPRPRPQWAPRP, the “shrunken log2 fold change” value worked out at 0.123.

RRIRARPPRLPRPRPRPPHMPRP: the “shrunken log2 fold change” value worked out at 0.661.

As to RRIRVRPPRLPRPRPRPTHRPRP, the “shrunken log2 fold change” value amounted to 0.662.

As to RRIRDRPPRLPRPRPRPYTIPRP, the “shrunken log2 fold change” value is -0.0747.

For RRIRARPPRLPRPRPRPPKSPRP, the “shrunken log2 fold change” value turned out to be 0.658.

For the sequence RRIRCRPPRLPRPRPRPLYLPRP, the “shrunken log2 fold change” value was -0.493.

For RRIRYRPPRLPRPRPRPADAPRP, the “shrunken log2 fold change” value was determined as 0.0896.

For the sequence RRIRERPPRLPRPRPRPTQMPRP, the “shrunken log2 fold change” value was -0.155.

As to RRIRLRPPRLPRPRPRPKPYPRP, the “shrunken log2 fold change” value stood at 0.00713.

As for RRIRARPPRLPRPRPRPEGCPRP, the “shrunken log2 fold change” value stood at 1.31.

As for RRIRKRPPRLPRPRPRPRSPPRP, the “shrunken log2 fold change” value was found to be 0.6.

Take RRIRGRPPRLPRPRPRPACDPRP: the “shrunken log2 fold change” value was 0.964.

For the sequence RRIRTRPPRLPRPRPRPSAEPRP, the “shrunken log2 fold change” value was found to be 0.363.

RRIRHRPPRLPRPRPRPPQAPRP: the “shrunken log2 fold change” value is 0.236.

In the case of RRIRARPPRLPRPRPRPPACPRP, the “shrunken log2 fold change” value is 0.817.

On to RRIRWRPPRLPRPRPRPLNFPRP, for which the “shrunken log2 fold change” value was -0.323.

On to RRIRSRPPRLPRPRPRPVLKPRP, for which the “shrunken log2 fold change” value is -0.0386.

In the case of RRIRPRPPRLPRPRPRPRDGPRP, the “shrunken log2 fold change” value came out at 0.694.

For RRIRPRPPRLPRPRPRPKLNPRP, the “shrunken log2 fold change” value was found to be 0.0891.

On to RRIRERPPRLPRPRPRPHITPRP, for which the “shrunken log2 fold change” value is -0.99.

Turning to RRIRCRPPRLPRPRPRPKGVPRP, the “shrunken log2 fold change” value turned out to be 0.595.

RRIRKRPPRLPRPRPRPIQFPRP: the “shrunken log2 fold change” value is 0.0779.

Consider RRIRIRPPRLPRPRPRPEKQPRP, for which the “shrunken log2 fold change” value stood at 0.0192.

For the sequence RRIRGRPPRLPRPRPRPGHRPRP, the “shrunken log2 fold change” value came out at 0.263.

For the sequence RRIRFRPPRLPRPRPRPFALPRP, the “shrunken log2 fold change” value is -0.00558.

Take RRIRGRPPRLPRPRPRPICIPRP: the “shrunken log2 fold change” value is 0.176.

For the sequence RRIRSRPPRLPRPRPRPDLMPRP, the “shrunken log2 fold change” value was -0.0144.

Consider RRIRPRPPRLPRPRPRPPIRPRP, for which the “shrunken log2 fold change” value was 0.41.

On to RRIRPRPPRLPRPRPRPIMYPRP, for which the “shrunken log2 fold change” value was -0.175.

Turning to RRIRVRPPRLPRPRPRPFLTPRP, the “shrunken log2 fold change” value is -0.0925.

For the sequence RRIRHRPPRLPRPRPRPSGQPRP, the “shrunken log2 fold change” value was -0.17.

Take RRIRPRPPRLPRPRPRPVDEPRP: the “shrunken log2 fold change” value is 0.0247.

As to RRIRRRPPRLPRPRPRPYDLPRP, the “shrunken log2 fold change” value was -0.546.

Turning to RRIRTRPPRLPRPRPRPYQPPRP, the “shrunken log2 fold change” value was -0.0681.

On to RRIRNRPPRLPRPRPRPPLYPRP, for which the “shrunken log2 fold change” value is -0.101.

For the sequence RRIRPRPPRLPRPRPRPLWMPRP, the “shrunken log2 fold change” value stood at 0.0937.

Take RRIRHRPPRLPRPRPRPHMWPRP: the “shrunken log2 fold change” value was 0.104.

With RRIRARPPRLPRPRPRPPNDPRP, the “shrunken log2 fold change” value came to 0.459.

In the case of RRIRRRPPRLPRPRPRPTSLPRP, the “shrunken log2 fold change” value is 0.0087.

Take RRIRSRPPRLPRPRPRPIESPRP: the “shrunken log2 fold change” value is -0.385.

As to RRIRSRPPRLPRPRPRPGRTPRP, the “shrunken log2 fold change” value came out at 0.0636.

With RRIRDRPPRLPRPRPRPACPPRP, the “shrunken log2 fold change” value worked out at 0.962.

For RRIRPRPPRLPRPRPRPRENPRP, the “shrunken log2 fold change” value turned out to be 0.672.

For RRIRLRPPRLPRPRPRPWLYPRP, the “shrunken log2 fold change” value was -0.541.

For RRIRVRPPRLPRPRPRPQIIPRP, the “shrunken log2 fold change” value was -0.299.

Regarding RRIRVRPPRLPRPRPRPFEFPRP, the “shrunken log2 fold change” value is -0.284.

As to RRIRMRPPRLPRPRPRPRCVPRP, the “shrunken log2 fold change” value worked out at 0.581.

With RRIRIRPPRLPRPRPRPKKWPRP, the “shrunken log2 fold change” value is -0.00764.

As for RRIRDRPPRLPRPRPRPTAHPRP, the “shrunken log2 fold change” value is 0.547.

As to RRIRRRPPRLPRPRPRPCSQPRP, the “shrunken log2 fold change” value was 0.0499.

For RRIRVRPPRLPRPRPRPIEQPRP, the “shrunken log2 fold change” value was -0.14.
